The results in this text go back to patent US20220259593A1, “CONTROL OF MAMMALIAN GENE DOSAGE USING CRISPR” (The Regents of the University of California, priority 2019, published 2022).

The test system of the data set is K562 CRISPRi cells. As to the kind of experiment: Constant region variant library pooled growth screen, K562. It is filed as cell-based, human. To be noted: sgRNA constant region variants, un-modified constant region cr995. In short, it runs like this: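 Relative activity expresses each targeting sequence:constant region pair's phenotype over that of the unmodified constant region. Pooled growth screen ran in K562 CRISPRi cells in duplicate spinner-flask replicates, with puromycin selection and 4–8 days' growth at >2000× coverage; library paired variants with 36 targeting sequences.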

[1] abbreviates: relative to the original, CRISPRi.
[2] abbreviates: activity relative to the original.

B1: cr599 (nucleic acid)
guide: GTTTAAGAGCTAAGCTGGAAACAGCATAGCAAGTTTAAATAAGGCTAGCCCGTTATCAACGTGAAAAAGTGGCACCGAGTCGGTGCT
modifications: listed as DNA, chemistry not fully specified
Molecule B1 returned a Mean relative activity under setting [1] of 0.5112.

B2: cr721 (nucleic acid)
guide: GTTTAAGAGCTAAGCTGGAAACAGCATAGCAAGTTTAAATAAGGCTAGTCCGCTATTAACTTGAAAAAGTGGCACCGAATCGGTGCT
modifications: listed as DNA, chemistry not fully specified
Regarding B2, the Mean relative activity under setting [1] amounted to 0.4696.

B3: cr101 (nucleic acid)
guide: GTTTAAGAGCTAAGCTGGAAACAGCATAGCAAGTTTAAATAAGGCTAGTCCGTTATCAACTTGAAAAAGTGGCGCCGAGTCGGTGCT
modifications: listed as DNA, chemistry not fully specified
B3 came in with a Mean relative activity under setting [2] of 1.048.

B4: cr120 (nucleic acid)
guide: GTTTAAGAGCTAAGCTGGAAACAGCATAGCAAGTTTAAATAAGGCTAGTCCGTTATCAACTTGAGAAAGTGGCACCCAGTGGGTGCT
modifications: listed as DNA, chemistry not fully specified
In turn, B4 registered a Mean relative activity under setting [1] of 0.5005.

B5: cr190 (nucleic acid)
guide: GTTTAAGAGCTAAGCTGGAAACAGCATAGCAAGTTTAAATAAGGCTAGTCCGTAATTAACTTGAAAAAGTGGCACCGAGACGGTGCT
modifications: listed as DNA, chemistry not fully specified
Under setting [1], B5 showed a Mean relative activity of 0.5036.

B6: cr659 (nucleic acid)
guide: GTTTAAGAGCTAAGCTGGAAACAGCATAGCAAGTTTACATAAGGCTAGTCCGTTATCAACTTGAAAAAGTGGCACCGAGTCGGTGCT
modifications: listed as DNA, chemistry not fully specified
B6: under setting [1], the Mean relative activity is given as 0.504.

B7: cr240 (nucleic acid)
guide: GTTTAAGAGCTAAGCTGGAAACAGCATAGCAAGTTTAAATAAGGCTAGTCCGTTAACAACTTGAAAAAGTGGCACCGAGTCGGTGCT
modifications: listed as DNA, chemistry not fully specified
In turn, B7 returned a Mean relative activity under setting [2] of 1.046.

B8: cr255 (nucleic acid)
guide: GTTTAAGAGCTAAGCTGGAAACAGCATAGCAAGCTTAAATAAGGCTAGTCCGTTATCAACTTGAAAAAGTGGGACCGAGTCGGTCCT
modifications: listed as DNA, chemistry not fully specified
On to B8, for which the Mean relative activity under setting [1] amounted to 0.5097.

B9: cr399 (nucleic acid)
guide: GTTTAAGAGCTAAGCTGGAAACAGCATAGCAAGTTTAAATAAGGCTAGTCCGTTATCAACTTGAAAAAGTGGCACCGAGTCCGTGCT
modifications: listed as DNA, chemistry not fully specified
Molecule B9 showed a Mean relative activity under setting [1] of 0.4727.

B10: cr620 (nucleic acid)
guide: GTTTAAGAGCTAAGCTGGAAACAGCATAGCAAGTTTAAATAAGGGTACTCCGTTATCAACTTGAAAAAGTGGAACTGAGTCAGTTCT
modifications: listed as DNA, chemistry not fully specified
In the case of B10, the Mean relative activity under setting [1] worked out at 0.4842.

B11: cr493 (nucleic acid)
guide: GTTTAAGAGCTAAGCTGGAAACAGCATAGCAAGTTTAAATAAGGCTAGCCCGTTACAAACTTGAAAAAGTGGCACCGAGTCGGTGCT
modifications: listed as DNA, chemistry not fully specified
In the case of B11, the Mean relative activity under setting [1] was 0.4736.

B12: cr071 (nucleic acid)
guide: GTTTACGGGCTAAGCTGGAAACAGCATAGCAAGTTTAAATAAGGCTAGTCCGTTATCAACTTGAAAAAGTGGCACCGAGTCGGTGCT
modifications: listed as DNA, chemistry not fully specified
In turn, B12 registered a Mean relative activity under setting [1] of 0.475.

B13: cr765 (nucleic acid)
guide: GTTTAAGAGCTAAGCTGGAAACAGCATAGCAAGTTTAAATAAGGCTAGTCCGTTATCAACTGGAAACAGTGGCACTCAGTGAGTGCT
modifications: listed as DNA, chemistry not fully specified
For B13, the Mean relative activity under setting [1] amounted to 0.4931.

B14: cr530 (nucleic acid)
guide: GTTTAAGAGCTAAGCTGGAAACAGCATAGCAAGTTTAAATAAGGCTAGCCCGATATCAACTTGAACAAGTGGCACCGAGTCGGTGCT
modifications: listed as DNA, chemistry not fully specified
Under setting [1], B14 had a Mean relative activity of 0.4998.

B15: cr611 (nucleic acid)
guide: GTTTAAGAGCTAAGCTGGAAACAGCATAGCAAGTTTAAATAAGGCTAGTCCGTTAGAAACTTGAAAAAGTGGCACCGAATCGGTGCT
modifications: listed as DNA, chemistry not fully specified
Turning to B15, the Mean relative activity under setting [1] is 0.4954.

B16: cr005 (nucleic acid)
guide: GCTTAAGAGCTAAGCTGGAAACAGCATAGCAAGTTTAAATAAGGCTAGTCCGTTATCAACTTGAAAAAGTGGCACCGAGTCGGTGCT
modifications: listed as DNA, chemistry not fully specified
As to B16, the Mean relative activity under setting [1] is 0.5108.

B17: cr177 (nucleic acid)
guide: GTTTAAGAGCTAAGCTGGAAACAGCATAGCAAGTTTAAAGAAGGCTAGTCCGTTATCAACTTGAAAAAGTGGCACCGAGTCGGTGCT
modifications: listed as DNA, chemistry not fully specified
For the molecule B17, the Mean relative activity under setting [1] was 0.4771.

B18: cr675 (nucleic acid)
guide: GTTTAAGAGCTAAGCTGGAAACAGCATAGCAAGCTTAAATAAGGCTAGTCCGTTATCACCTTGAAAAAGGGGCACCGAGTCGGTGCT
modifications: listed as DNA, chemistry not fully specified
Under setting [1], B18 yielded a Mean relative activity of 0.5084.

B19: cr317 (nucleic acid)
guide: GTTTAAGAGCTAAGCTGGAAACAGCATAGCAAGTTTAAATATGGCTAGTCCGTTATCAACTTGAAAAAGTGGCACCGAGTCGGTGCT
modifications: listed as DNA, chemistry not fully specified
Regarding B19, the Mean relative activity under setting [1] is reported as 0.5027.

B20: cr016 (nucleic acid)
guide: GTTTATGAGCTAAGCTGGAAACAGCATAGCAAGTTTAAATAAGGCTAGTCCGTTATCAACTTGAAAAAGTGGCACCGAGTCGGTGCT
modifications: listed as DNA, chemistry not fully specified
As to B20, under setting [1], the Mean relative activity is recorded as 0.4876.

B21: cr824 (nucleic acid)
guide: GTTTAAGAGCTAAGCTGGAAACAGCATAGCAAGTTTAAATAAGGCTAGTCCGTTATCAACTTGACAAAGTGGCACCGAGGCGGTGCT
modifications: listed as DNA, chemistry not fully specified
Regarding B21, the Mean relative activity under setting [1] was found to be 0.499.

B22: cr682 (nucleic acid)
guide: GTTTAAGAGCTAAGCTGGAAACAGCATAGCAAGTTTAAATAAGCGTACTGCGTTATCAACTTGAAAAAGTGGCACCGAGTCGGTGCT
modifications: listed as DNA, chemistry not fully specified
Molecule B22 showed a Mean relative activity under setting [1] of 0.4794.

B23: cr175 (nucleic acid)
guide: GTTTAAGAGCTAAGCTGGAAACAGCATAGCAAGTTTAAATAAGGCTAGTCCGTTATCCACTTGAAAAAGTGGCACCGAGTCGGTGCT
modifications: listed as DNA, chemistry not fully specified
With B23, the Mean relative activity under setting [1] is 0.4914.

B24: cr369 (nucleic acid)
guide: GTTTAAGAGCTAAGCTGGAAACAGCATAGCAAGTTTAAATAAGGCTAGTCCGTTATCAAATTGAAAAAGTGGCACCGAGTCGGTGCT
modifications: listed as DNA, chemistry not fully specified
On to B24, for which the Mean relative activity under setting [1] is listed as 0.4754.

B25: cr904 (nucleic acid)
guide: GTTTAAGAGCTAAGCTGGAAACAGCATAGCAAGTTTAAATAAGTCTAGTACGTTATCAATTTGAAAAAATGGCAACGAGTCGTTGCT
modifications: listed as DNA, chemistry not fully specified
For B25, under setting [1], the Mean relative activity worked out at 0.4677.

B26: cr770 (nucleic acid)
guide: GTTTAAGAGCTAAGCTGGAAACAGCATAGCAAGCTTAAATAAGGCTAGTCCGTTATCAACTTGAAAAAGTGGAACCGAGTCGGTTCT
modifications: listed as DNA, chemistry not fully specified
As to B26, the Mean relative activity under setting [1] worked out at 0.4771.

B27: cr124 (nucleic acid)
guide: GTTTAAGAGCTAAGCTGGAAACAGCATAGCATGTTTAAATATGGCTAGTCCGTTATCAACTTGAAAAAGTGGCACCGAGTCGGTGCT
modifications: listed as DNA, chemistry not fully specified
Take B27: the Mean relative activity under setting [1] came to 0.4757.

B28: cr183 (nucleic acid)
guide: GTTTAAGAGCTAAGCTGGAAACAGCATAGCAAGTTTAAATAAGGTTAATCCGTTATCAACTTGAGAAAGTGGCACCGAGTCGGTGCT
modifications: listed as DNA, chemistry not fully specified
Under setting [2], B28 displayed a Mean relative activity of 1.047.

B29: cr163 (nucleic acid)
guide: GTTTAAGAGCTAAGCTGGAAACAGCATAGCAAGCTTAAATAAGGCTAGTCCGTTATCAACTTGAAAAAGTGGCACCGAGTCGGTGCT
modifications: listed as DNA, chemistry not fully specified
B29 displayed a Mean relative activity under setting [1] of 0.4662.
